# Measurements from PMC3814348 (PLoS Pathogens, 2013).
# Molecular target: Hrs, purified recombinant ( (human, mouse or zebrafish …, UniProt O14964 1-777))
# Experiment: pull-down
# Conditions: both partners purified
binder,measurement,value
EsxGMt EsxHMt-6XHis heterodimer (complex) chain 1: MSLLDAHIPQLVASQSAFAAKAGLMRHTIGQAEQAAMSAQAFHQGESSAAFQAAHARFVAAAAKVNTLLDVAQANLGEAAGTYVAADAAAASTYTGF chain 2: MSQIMYNYPAMLGHAGDMAGYAGTLQSLGAEIAVEQAALQSAWQGDTGITYQAWQAQWNQAMEDLVRAYHAMSSTHEANTMAMMARDTAEAAKWGG,Kd,5.4 µM
